What was measured:
[1] = system: Relapsed/Refractory Multiple Myeloma (RRMM) patients; assay: Clinical study of CC-93269 in RRMM: safety, cytokine release syndrome (CRS); format: in vivo, human
Procedure: CC-93269 (42-TCBcv), a bispecific antibody that specifically binds to BCMA bivalently and CD3 monovalently, was administered intravenously over 2 hours on Days 1, 8, 15, and 22 for Cycles 1-3; Days 1 and 15 for Cycles 4-6; and on Day 1 for Cycle 7 and beyond, all in 28-day cycles. […] 5 patients received a starting dose of 6 mg on Cycle 1 Day 1, followed by a dose of 10 mg on Cycle 1 Day 8 and thereafter (Cohort 7, n=5).
CRS prophylaxis was implemented with dexamethasone (up to 20 mg intravenous or equivalent) for the first dose and dose increases in patients receiving ≥6 mg. In Cohorts 1-4, dexamethasone was not used as a premedication.
Patients were monitored for clinical signs and symptoms associated with CRS (Lee, 2014) and CRS events were graded and treated according to the common CTCAE CRS grading scale (Lee, 2015).
CC-93269 was administered intravenously over 2 hours on Days 1, 8, 15, and 22 for Cycles 1-3; Days 1 and 15 for Cycles 4-6; and on Day 1 for Cycle 7 and beyond, all in 28-day cycles. Patients received a starting dose of 3 mg on Cycle 1 Day 1, followed by a dose of 6 mg on Cycle 1 Day 8 and thereafter.
Cohorts 8 (n=6) and 9 (n=5) differ in baseline multiple myeloma tumor burden based on percentage of bone marrow plasma cells and/or the presence of extramedullary disease (Cohort 8 including subjects with ≤50% bone marrow plasma cells [biopsy or aspirate] and ≤5 extramedullary lesions and Cohort 9 including subjects with >50% bone marrow plasma cells or >5 extramedullary lesions). Patients with lower (Cohort 8) and higher (Cohort 9) tumour burden were enrolled to evaluate possible differences in tolerability based on the rationale that the only patient of Cohorts 1-7 to experience Grade ≥3 CRS had extensive extramedullary disease at enrolment.
In Cohorts 8 and 9, all patients received dexamethasone (up to 20 mg intravenous or equivalent) as prophylaxis for CRS prior to the first dose, the second dose, any dose increase, and after dose interruption of more than 2 weeks occurring during Cycles 1 to 6. Patients were monitored, graded, and treated for CRS in the same way as for Cohorts 1-7 in Example 1.

[2] = system: MM1S BCMA-expressing myeloma cell line; assay: CC-93269-induced redirected lysis of MM1S; format: cell-based, human; conditions: E:T 1:1, 72 hours, 3 donors
Procedure: (§1) Four BCMA-expressing tumour cell lines purchased from ATCC (Manassa, Va.) (Multiple Myeloma cell lines: BCMA high-H-929 (catalog number CRL-9068), BCMA mid-SKMM2 and -MM.1S (catalog number ACC-430) and BCMA low-KMS12-PE (catalog number ACC-606)) were co-cultured with T-cells from 3 independent healthy donors (Bloodworks Northwest, Seattle, Wash.), at a E:T ratio of 1:1, i.e. 1 T cell: 1 myeloma cell. […]; 0.033-2.6 nM) for 72 hours.
(§2) FIG. 7 illustrates CC-93269-induced redirected lysis of BCMA+ tumour cell lines following co-culture with donor T cells from one healthy donor; results from all 3 independent healthy donors are summarised in Table 19. In 96-well round bottom plates and a final volume of 100 μL, 1×10^4 CellTrace Violet-labeled T-cells were plated with 1×10^4 CellTrace CFSE-labeled target cells, in the presence of varying concentrations of CC-93269 in combination with varying concentrations of dexamethasone (7-point dose response). The cocultures were incubated at 37° C. with 5% CO2. […] One-hundred percent viability was determined by the absolute cell count of live tumour cells at no addition of CC-93269 or dexamethasone; an absolute cell count of 0 live cells was used to define 100% killing of tumour cells. […] The IC50 values were calculated using non-linear regression analysis, sigmoidal dose-response using GraphPad Prism (version 5.0) software.

[3] = system: SKMM2 BCMA-expressing myeloma cell line; assay: CC-93269-induced redirected lysis of SKMM2; format: cell-based, human; conditions: E:T 1:1, 72 hours, 3 donors
Procedure: as §1, §2

[4] = system: H929 BCMA-expressing myeloma cell line; assay: CC-93269-induced redirected lysis of H929; format: cell-based, human; conditions: E:T 1:1, 72 hours, 3 donors
Procedure: as §1, §2

[5] = Clinical study of CC-93269 in RRMM: pharmacokinetics (exposure); format: in vivo, human
Procedure: CC-93269 (42-TCBcv), a bispecific antibody that specifically binds to BCMA bivalently and CD3 monovalently, was administered intravenously over 2 hours on Days 1, 8, 15, and 22 for Cycles 1-3; Days 1 and 15 for Cycles 4-6; and on Day 1 for Cycle 7 and beyond, all in 28-day cycles. 14 patients received a fixed dose of CC-93269 at each of the intervals: 0.15 mg (Cohort 1, n=1), 0.5 mg (Cohort 2, n=1), 1.5 mg (Cohort 3, n=1), 3 mg (Cohort 4, n=4), 6 mg (Cohort 5, n=3) or 10 mg (Cohort 6, n=4). 5 patients received a starting dose of 6 mg on Cycle 1 Day 1, followed by a dose of 10 mg on Cycle 1 Day 8 and thereafter (Cohort 7, n=5).
This phenomenon was not observed at 3 mg doses.

In the case of “CC-93269: bispecific antibody that specifically binds to BCMA bivalently and CD3 monovalently; SEQ ID NO:48, 55, 56, 57 (2×)”, the “patients who experienced CRS” value ([1]; 11 patients, 3/6 mg dose regimen (Cohorts 8 and 9)) was 54.5%, the “subjects with Grade 2 or higher CRS events” value ([1]; 11 subjects receiving 3/6 mg) was 18.2% and the “subjects with Grade 2 or higher CRS events” value ([1]; 12 subjects, 6 mg, 6/10 mg, or 10 mg doses) was 50%. For the same substance, the “subjects who experienced CRS” value ([1]; 12 subjects, 6 mg, 6/10 mg, or 10 mg doses (Cohorts 5 to 7)) was 100%, the “CRS, maximum Grade” value ([1]; Cohort 6, consecutive doses of 6 mg, all CRS events in Cycle 1) was 2 and the “CRS frequency or severity, higher versus lower tumor burden” value ([1]; Cohort 9 compared with Cohort 8) was “no increase observed”. The “Grade 3 or higher CRS events” value ([1]; Cohorts 8 and 9) was “no Grade 3 or higher CRS events were reported”, the “severity of CRS in comparison with Cohorts 5 to 7” value ([1]; Cohorts 8 and 9) was “generally decreased” and the “CRS events of Grade 1” value ([1]; Cohorts 8 and 9, 8 events) was 75%. For the same substance, the “CRS events of Grade 2” value ([1]; Cohorts 8 and 9, 8 events) was 25%, the “outcome of CRS events” value ([1]; Cohorts 8 and 9, tocilizumab and/or dexamethasone) was “resolved with standard treatments” and the death on study ([1]; One patient, 6 mg first dose and 10 mg on Cycle 1 Day 8 (Cohort 7)) was “died on the study in the setting of CRS”. For the same substance, the “CRS events lasting more than 3 days” value ([1]; all cohorts 1 to 9) was 4 of 36, the “CRS events occurring with the first dose on C1D1” value ([1]; all cohorts 1 to 9) was 73.3% and the “CRS events occurring with the second dose on C1D8” value ([1]; all cohorts 1 to 9) was 23.3%. The “duration of a CRS event, range” value ([1]; all cohorts 1 to 9) was 1 to 7 days, the “maximum time to first onset of CRS” value ([1]; all cohorts 1 to 9) was 3 days and the “median duration of a CRS event” value ([1]; all cohorts 1 to 9) was 2 days. For the same substance, the “median time to first onset of CRS” value ([1]; all cohorts 1 to 9) was 1 days, the “CRS events occurring with subsequent doses” value ([1]; all cohorts 1 to 9, limited to Grade ≤2 events) was 2.7% and the tolerability ([1]; consecutive doses of ≤3 mg, no CRS prophylactic) was “well-tolerated”. The “Cytokine release syndrome, maximum Grade” value ([1]; fixed dose of ≤3 mg) was 1, the “CRS Grade after the first dose” value ([1]; one patient of Cohort 7, Cycle 1 Day 1, 6 mg) was 3 and the “CRS Grade after the second dose” value ([1]; same patient of Cohort 7, Cycle 1 Day 8, 10 mg) was 5. The “% live tumour cells, Mean” value ([2]; 1 μM Dex co-treatment) was 0.98%, the “% live tumour cells, Mean” value ([2]; DMSO) was 1.5% and the “% live tumour cells, Mean” value ([3]; 1 μM Dex co-treatment) was 3.5%. For the same substance, the “% live tumour cells, Mean” value ([3]; DMSO) was 2.68%, the “% live tumour cells, Mean” value ([4]; 1 μM Dex co-treatment) was 2.11% and the “% live tumour cells, Mean” value ([4]; DMSO) was 1.61%. The “large increases in exposure after multiple doses” value ([5]; 3 mg doses) was “not observed” and the “exposure after multiple doses” value ([5]; doses ≥6 mg) was “large increases in exposure”.
